Reference: patent US20220162619

System: T1, synthetic model peptide substrate PLVQ conjugated with 7-amino-4-methylcoumarin (AMC)
T1 sequence: PLVQ

recombinant truncated triticain-alpha with a C-terminal polyhistidine sequence, expressed in soluble form in E. coli
enzymatic (proteolytic) activity: hydrolysis of PLVQ-AMC, fluorescence of free AMC: significantly exceeded the activity of the truncated triticain-alpha preparation 6HIS-Triticain-α-GM, obtained in an insoluble form, as well as that of papain

recombinant truncated triticain-alpha with an N-terminal polyhistidine sequence, expressed in soluble form in E. coli
enzymatic (proteolytic) activity: hydrolysis of PLVQ-AMC, fluorescence of free AMC: significantly exceeded the activity of the truncated triticain-alpha preparation 6HIS-Triticain-α-GM, obtained in an insoluble form, as well as that of papain
